Measured values reported in the supplement of paper PMC9170038.

Key:
[1] = test system: MS2 coat protein; experiment: apparent KD of MS2 coat protein; designed switch direction (-1 OFF switch, 1 ON switch): 1; higher = weaker reporter binding
Summary of the method: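 Apparent KD, taken as the median over clusters for each design, was obtained by curve-fitting normalised cluster fluorescence. Designed RNA switches had been transcribed on Illumina chips by stalled E. coli RNA polymerase and titrated with SNAP-549-labelled MS2 coat protein, doubling from 0.7 or 1.5 nM to 3 µM.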

[2] = test system: K4 kissing-loop RNA reporter; experiment: apparent KD of K4 kissing-loop reporter; higher = weaker reporter binding; conditions: Eterna round: R107;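 also: bound reporter read as fluorescence of individual clusters on recovered sequencing chips by microscopy, with normalized cluster intensities fitted with a binding model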
Description: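 RNA-MaP round R107: designed RNA switches with theophylline, tryptophan, arginine or FMN aptamers are transcribed on-chip within common flanks. They are titrated with a labelled K4 kissing-loop RNA reporter in RNA-MaP buffer (100 mM Tris pH 7.5, 80 mM KCl, 4 mM MgCl2), without ligand or with the indicated ligand. Median apparent KD per design.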

[3] = input ligand: microRNA oligo, concentration not stated
[4] = Eterna round: R95, input ligand: microRNA oligo, concentration not stated
[5] = Eterna round: R95, input ligand: FMN 200 uM
[6] = Eterna round: R95, input ligand: none
[7] = input ligand: theophylline 20 uM
[8] = input ligand: tryptophan 2.4 mM

Row | Sequence | apparent KD of K4 kissing-loop reporter ([2]; input ligand: FMN 200 uM) [nM] | apparent KD of K4 kissing-loop reporter ([2]; input ligand: arginine 13.2 mM) [nM] | apparent KD of K4 kissing-loop reporter ([2]; input ligand: none) [nM] | apparent KD of K4 kissing-loop reporter [2, 7] [nM] | apparent KD of K4 kissing-loop reporter [2, 8] [nM] | further results
1 | UGGAGACGUCAAGGAUAUGCUACCGUUUCGGUAGCAGAAGGUGAUCACAUGAGGAUCACCCAUGUAUGCAUGCGUGAGCGUGCU [JL SSNG1 3.52] (Eterna round: R96, puzzle: Same State NG 1) | – | – | – | – | – | apparent KD of MS2 coat protein ([1]; input ligand: FMN 200 uM): 72.1 nM; apparent KD of MS2 coat protein [1, 3]: 2.49 nM; apparent KD of MS2 coat protein ([1]; input ligand: none): 6.24 nM
2 | AAGCUCGUGUGAGGAUAUGCCGCCGUUUCGGCUGCAGAAGGUGCUACGUUACAUGAGGAUCACCCAUGUCUCUGUUGUUUCGUU [salish99_SSNG1_r04_951] (Eterna round: R96, puzzle: Same State NG 1) | – | – | – | – | – | apparent KD of MS2 coat protein ([1]; input ligand: FMN 200 uM): 18.7 nM; apparent KD of MS2 coat protein [1, 3]: 15.9 nM; apparent KD of MS2 coat protein ([1]; input ligand: none): 20.8 nM
3 | AUACUCAUGUAAGGAUAUGCAGCCGAAACGGCUGCAGAAGGUACUAUAAUACAUGAGGAUCACCCAUGUCUCUAUUAUUUAGUU [Mat - Same State NG 1 - JL mod - D98] (Eterna round: R96, puzzle: Same State NG 1) | – | – | – | – | – | apparent KD of MS2 coat protein ([1]; input ligand: FMN 200 uM): 89.5 nM; apparent KD of MS2 coat protein [1, 3]: 46.5 nM; apparent KD of MS2 coat protein ([1]; input ligand: none): 101 nM
4 | CGGCGCUGUCGAGAGGAUAUGCGGUGAUGGACAUGAGGAUCACCCAUGUUAGCGAUAGCAUUACGGUAGAAGGCUCUACAGCUGC [Soteed Omei mod 4] (puzzle: Same State 2) | – | – | – | – | – | apparent KD of MS2 coat protein [1, 4]: 27.9 nM
5 | AGUCCAGCCUAAGCUGGACAAAAGCAUGUACAUGAGGAUCACCCAUGUCAUGUACAAGCUUUUUGCUCGUCUUAAAA [Mat - hsa-mir-208a - Mod of JL - D4] (puzzle: Sensor for hsa-mir-208a) | – | – | – | – | – | apparent KD of MS2 coat protein [1, 5]: 684 nM; apparent KD of MS2 coat protein [1, 4]: 16.1 nM; apparent KD of MS2 coat protein [1, 6]: 550 nM
6 | GCUCGAAUCACAACCAACAUGAGGAUCACCCAUGUGUGUUGGUAGGAUAUCGUUUCUAAGGGAAACGAGAAGGGCCGAACGAGC [SameState NG3 #8] (Eterna round: R96, puzzle: Same State NG 3) | – | – | – | – | – | apparent KD of MS2 coat protein ([1]; input ligand: FMN 200 uM): 18.9 nM; apparent KD of MS2 coat protein [1, 3]: 12.4 nM; apparent KD of MS2 coat protein ([1]; input ligand: none): 21.7 nM
7 | GCUCUACAUGAGGAUCACCCAUGUUCGGACGCACGAGGAUAUGCAUGGGCGAAAGCUGGUGCAGAAGGCGUGGGAC [inDCorner] (puzzle: Same State 1) | – | – | – | – | – | apparent KD of MS2 coat protein [1, 4]: 150 nM
8 | UUAAAACAUGAGGAUCACCCAUGUAAUAUAAUGGGAGGAUAUCUGAUUUAAUUAAAUUUAAGAGAAGGCCUAAAUU [Mat - Same State 1 - Mod of Eli - D55] (puzzle: Same State 1) | – | – | – | – | – | apparent KD of MS2 coat protein [1, 5]: 28.9 nM; apparent KD of MS2 coat protein [1, 4]: 128 nM; apparent KD of MS2 coat protein [1, 6]: 169 nM
9 | GCGAAAGCGGUAGGAUAUCUAGGAUAUGGGAAGACCUAAGGUUGGAAGUCACUUCACCCAGAAGGAGAGAAGGACACCGAAAGG [pwkr ssNG2 2FMN + F9.2] (Eterna round: R96, puzzle: Same State NG 2) | – | – | – | – | – | apparent KD of MS2 coat protein ([1]; input ligand: FMN 200 uM): 36.6 nM; apparent KD of MS2 coat protein [1, 3]: 113 nM; apparent KD of MS2 coat protein ([1]; input ligand: none): 134 nM
10 | GCAACGUGAUUAGGAUAUGCGAAACCCAUGGAAACUACACAUGAGGAUCACCCAUGUCCAUAGCCGCAGAAGGGAUCCGGAGCA [Eternabot solution 6] (Eterna round: R96, puzzle: Same State NG 2) | – | – | – | – | – | apparent KD of MS2 coat protein ([1]; input ligand: FMN 200 uM): 32.1 nM; apparent KD of MS2 coat protein [1, 3]: 90.3 nM; apparent KD of MS2 coat protein ([1]; input ligand: none): 147 nM
11 | UAGUGAUUGCAAGGAUAUGCUAGUUUUUAUUUGUGUUUGAUAACAAACAUGAGGAUCACCCAUGUGCAGAAGGUGCUAGAUAUG [JR_SSNG2_Sub079] (Eterna round: R96, puzzle: Same State NG 2) | – | – | – | – | – | apparent KD of MS2 coat protein [1, 3]: 348 nM
12 | GGAGCCGGCACUGAGGAUAUUCAUAUUAAAACAUGAGGAUCACCCAUGUGGGCCAGAAGGCCUUGGGAGAAGGCAGGUCGACUCG [Diqureveri - 3] (puzzle: Same State 2) | – | – | – | – | – | apparent KD of MS2 coat protein [1, 5]: 18.5 nM; apparent KD of MS2 coat protein [1, 4]: 145 nM; apparent KD of MS2 coat protein [1, 6]: 243 nM
13 | AUUGGGUAACGAGGAUAUCGUAUUUGUUUGUUUCGAGAAGGCGUUAUAGUUUCUUUCUAUUGUUACAUGAGGAUCACCCAUGUU [JR_SSNG1_Sub052] (Eterna round: R96, puzzle: Same State NG 1) | – | – | – | – | – | apparent KD of MS2 coat protein ([1]; input ligand: FMN 200 uM): 19.1 nM; apparent KD of MS2 coat protein [1, 3]: 15 nM; apparent KD of MS2 coat protein ([1]; input ligand: none): 19.9 nM
14 | CCGUGGAGUGAUGUUCCACGUUCUACGGAUACCAGCCACGCCAGCGGCCCUUGGCAGCCGCACCUUGCAGUGAUGUUGUGAGGCU [Same State Theophylline A GF 5] | 365 | 312 | 349 | 330 | 302 | –
15 | GAAUGAUAGUAAGGAUAUAGAUAAUCCUUAUAUAUAUCGAGUGAUGUUCGAUGUGGCAAGAUACAUCUAGAAGGUACUGUAAGGU [Same State FMN B GF 16] | 309 | 321 | 361 | 361 | 240 | –
16 | GGUAGCAUGGCGGCCGCCACUUACACCACGGCCCUUCUAGUGAUGUUAGAGUGGAUUAUUCCGUUAAGGACCGGGCCAUGCUACC | 629 | 430 | 745 | 650 | 273 | –
17 | UCGUUAAAAGCGGCCGCCACUGCCAGAGCUCUGGAAAAGGCUGGAGUGAUGUUCUGCCUAGUAGACAGGACCGGGCUAUUGGAUU [theeternabot_sameState_KL_Trp_B_29] | 667 | 422 | 609 | 588 | 594 | –
18 | UUUAAAUAUAGUGAUGUUAUAUAACAAUGACGAGGACCGGUACGGCCGCCACUCGAGAGAGAUAAUGGUCAUACAAAUGUAUGUC [AstrosSSTryA#7] | 799 | 706 | 1100 | 830 | 564 | –
19 | AAAAUAAUCCAGUGAUGUUGGUAUUCAGAUACCAGCGACGAAAGUCGCCCUUGGCAGCUGUGGACGUACAAAAUAAGUACGUCCU | 967 | 657 | 1060 | 944 | 660 | –
20 | AUUAUAUUGUGAAGGAGCGCGCAUAGUAGUGAUGUUACUAUGACAUAUCUUAUUUAAUUCUCGCAGGUAGGUCGCACAUUAUAUA [JR_Nu_ExcArginiB_Sub026] | 92.5 | 64.8 | 79.7 | 65.5 | 71.8 | –
21 | GGGAAGGACGGAGGAUAUGCACUGAGGAGGAGAAUAUAGUGAUGUUAUAUAAGAGGAAGGAGCUGAGUAGAAGGCCGAGGAAAGG [whbob_SS_FMNB__2th207] | 147 | 87.9 | 134 | 92.4 | 129 | –
22 | UUAGGAGAGGGAAGGAGCGUGAAAGAGAAAGAAUAUAGUGAUGUUAUAUAGAAGAAAGAAUCACAGGUAGGUCGCCCGGAGGAGG [SSArgB.C] | 672 | 520 | 632 | 225 | 518 | –
23 | UUAAUUAAGACGGCCGCCACUGAAUUAGAGUGAUGUUCUAAAAUUACUAAAUUAAAUUUAUUCAACAGGACCGGGUCAAUUAUUA [JR_SSTryptoB_Sub009] | 516 | 435 | 560 | 527 | 524 | –
24 | UUUUAAAUGUCUGAUACCAGAGAAAAUAUAUGUAGUGAUGUUAUAUACAAAAUAAAUAAGCUCCCUUGGCAGCAGUAUUAAUUUU [AstrosExc-TheB#6] | 679 | 632 | 863 | 725 | 529 | –
25 | CCGCUACCCUCAGGAUAUUAAUAUGGAGUGAUGUUCUAUGUCCGAUGGCGGAAACGCCAUCGGGAAUAAGAAGGGAGGGUAGCGG | 189 | 261 | 482 | 313 | 329 | –
26 | UGAUAGGACAGAAGGAGCGGAAGUGAUGUUUCCUAAAGGAUAAAGGUGUCAAAGACACCCUUCCAGGUAGGUCGCUGUCCUAUCU [ArgBX 16 #Palindromic #SwitchBubble #StaticStem] | 549 | 923 | 579 | 532 | 566 | –
27 | GGUGCUGUCUGUGCCGCCCUCCUCGUCCCUCGAGGACCGGUACGGCCGCCACUCGAGUGAUGUUCGGGUAGCCAUCCCUGCCAGC [BDazzled - #20 Exc. Tryptophan A] | 527 | 328 | 431 | 341 | 322 | –
